Results reported in the supplement of paper PMC9112550, “Optimization of the antimicrobial peptide Bac7 by deep mutational scanning” (BMC Biology, 2022).

Test system: Escherichia coli TOP10
Assay: shrunken log2 fold change of peptide-encoding DNA abundance (4.5 h post-induction vs induction); higher = less antimicrobial activity (less host growth inhibition)
Details: time post-induction: 4.5 h; library: site-saturation at positions 5, 18, 19, 20
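Further: peptides expressed intracellularly from a pBAD plasmid library in pooled LB shake-flask culture, induced with 0.3% L-arabinose, DNA abundance read by NGS, three biological replicates, DESeq2 with apeglm shrinkage.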

Sequence	shrunken log2 fold change
RRIRQRPPRLPRPRPRPKGYPRP	-0.00146
RRIRQRPPRLPRPRPRPKITPRP	-0.0282
RRIRQRPPRLPRPRPRPKKDPRP	-0.184
RRIRQRPPRLPRPRPRPKKNPRP	0.0205
RRIRQRPPRLPRPRPRPKLGPRP	0.00556
RRIRQRPPRLPRPRPRPKLIPRP	-0.0954
RRIRQRPPRLPRPRPRPKMLPRP	0.0996
RRIRQRPPRLPRPRPRPKNAPRP	0.0178
RRIRQRPPRLPRPRPRPKNFPRP	-0.0816
RRIRQRPPRLPRPRPRPKNWPRP	0.139
RRIRQRPPRLPRPRPRPKPRPRP	0.309
RRIRQRPPRLPRPRPRPKQLPRP	-0.156
RRIRQRPPRLPRPRPRPKRNPRP	0.29
RRIRQRPPRLPRPRPRPKRRPRP	0.0204
RRIRQRPPRLPRPRPRPKTIPRP	-0.184
RRIRQRPPRLPRPRPRPKTPPRP	-0.0134
RRIRQRPPRLPRPRPRPKVPPRP	0.105
RRIRQRPPRLPRPRPRPKYWPRP	-0.309
RRIRQRPPRLPRPRPRPLAIPRP	-0.122
RRIRQRPPRLPRPRPRPLCLPRP	-0.253
RRIRQRPPRLPRPRPRPLDEPRP	0.0698
RRIRQRPPRLPRPRPRPLEGPRP	-0.0228
RRIRQRPPRLPRPRPRPLFYPRP	-0.251
RRIRQRPPRLPRPRPRPLGMPRP	-0.218
RRIRQRPPRLPRPRPRPLHLPRP	-0.617

Sequence	shrunken log2 fold change
RRIRQRPPRLPRPRPRPLIRPRP	-0.966
RRIRQRPPRLPRPRPRPLKRPRP	-0.0432
RRIRQRPPRLPRPRPRPLMLPRP	-0.213
RRIRQRPPRLPRPRPRPLNNPRP	-0.586
RRIRQRPPRLPRPRPRPLPSPRP	-0.0393
RRIRQRPPRLPRPRPRPLPWPRP	0.117
RRIRQRPPRLPRPRPRPLQMPRP	0.122
RRIRQRPPRLPRPRPRPLQRPRP	-0.0166
RRIRQRPPRLPRPRPRPLTVPRP	0.0325
RRIRQRPPRLPRPRPRPLVIPRP	-0.682
RRIRQRPPRLPRPRPRPLWDPRP	-0.0887
RRIRQRPPRLPRPRPRPMADPRP	0.207
RRIRQRPPRLPRPRPRPMAQPRP	0.006
RRIRQRPPRLPRPRPRPMDAPRP	0.05
RRIRQRPPRLPRPRPRPMFCPRP	0.0313
RRIRQRPPRLPRPRPRPMFPPRP	-0.181
RRIRQRPPRLPRPRPRPMFRPRP	-0.0146
RRIRQRPPRLPRPRPRPMFWPRP	0.0915
RRIRQRPPRLPRPRPRPMGKPRP	-0.167
RRIRQRPPRLPRPRPRPMHEPRP	0.187
RRIRQRPPRLPRPRPRPMHNPRP	-0.28
RRIRQRPPRLPRPRPRPMKPPRP	-0.0268
RRIRQRPPRLPRPRPRPMLHPRP	-0.0433
RRIRQRPPRLPRPRPRPMMPPRP	0.0665
RRIRQRPPRLPRPRPRPMMRPRP	0.109

Sequence	shrunken log2 fold change
RRIRQRPPRLPRPRPRPMNQPRP	-0.437
RRIRQRPPRLPRPRPRPMPEPRP	-0.237
RRIRQRPPRLPRPRPRPMPQPRP	0.00445
RRIRQRPPRLPRPRPRPMPYPRP	-0.0574
RRIRQRPPRLPRPRPRPMRPPRP	0.968
RRIRQRPPRLPRPRPRPMVAPRP	0.143
RRIRQRPPRLPRPRPRPMVDPRP	-0.00399
RRIRQRPPRLPRPRPRPMVYPRP	0.017
RRIRQRPPRLPRPRPRPMWIPRP	-0.146
RRIRQRPPRLPRPRPRPMWYPRP	-0.298
RRIRQRPPRLPRPRPRPNCNPRP	-0.882
RRIRQRPPRLPRPRPRPNDCPRP	0.0531
RRIRQRPPRLPRPRPRPNDMPRP	-0.296
RRIRQRPPRLPRPRPRPNDNPRP	-0.577
RRIRQRPPRLPRPRPRPNDPPRP	-0.0265
RRIRQRPPRLPRPRPRPNDSPRP	-0.449
RRIRQRPPRLPRPRPRPNECPRP	0.033
RRIRQRPPRLPRPRPRPNEDPRP	0.031
RRIRQRPPRLPRPRPRPNEKPRP	-0.0522
RRIRQRPPRLPRPRPRPNEPPRP	-0.0605
RRIRQRPPRLPRPRPRPNEWPRP	-0.00822
RRIRQRPPRLPRPRPRPNFWPRP	-0.00668
RRIRQRPPRLPRPRPRPNGPPRP	-0.011
RRIRQRPPRLPRPRPRPNGQPRP	-0.262
RRIRQRPPRLPRPRPRPNHGPRP	-0.00507

Sequence	shrunken log2 fold change
RRIRQRPPRLPRPRPRPNHHPRP	-0.864
RRIRQRPPRLPRPRPRPNHWPRP	-0.176
RRIRQRPPRLPRPRPRPNICPRP	0.0129
RRIRQRPPRLPRPRPRPNIIPRP	-0.247
RRIRQRPPRLPRPRPRPNKPPRP	-0.195
RRIRQRPPRLPRPRPRPNLMPRP	-0.196
RRIRQRPPRLPRPRPRPNLQPRP	0.0864
RRIRQRPPRLPRPRPRPNNNPRP	-0.825
RRIRQRPPRLPRPRPRPNNRPRP	-0.686
RRIRQRPPRLPRPRPRPNPKPRP	-0.00731
RRIRQRPPRLPRPRPRPNTDPRP	-0.166
RRIRQRPPRLPRPRPRPNTEPRP	-0.0119
RRIRQRPPRLPRPRPRPNTIPRP	0.0518
RRIRQRPPRLPRPRPRPNVGPRP	-0.0447
RRIRQRPPRLPRPRPRPNVKPRP	0.0117
RRIRQRPPRLPRPRPRPNWKPRP	0.135
RRIRQRPPRLPRPRPRPNWLPRP	0.259
RRIRQRPPRLPRPRPRPNWPPRP	0.192
RRIRQRPPRLPRPRPRPNWYPRP	-0.0479
RRIRQRPPRLPRPRPRPNYPPRP	-0.239
RRIRQRPPRLPRPRPRPPAQPRP	0.0181
RRIRQRPPRLPRPRPRPPASPRP	0.191
RRIRQRPPRLPRPRPRPPCAPRP	0.293
RRIRQRPPRLPRPRPRPPCEPRP	-0.00701
RRIRQRPPRLPRPRPRPPCQPRP	0.0396

Sequence	shrunken log2 fold change
RRIRQRPPRLPRPRPRPPCSPRP	0.219
RRIRQRPPRLPRPRPRPPDRPRP	0.0477
RRIRQRPPRLPRPRPRPPEKPRP	0.917
RRIRQRPPRLPRPRPRPPEPPRP	0.834
RRIRQRPPRLPRPRPRPPFRPRP	0.14
RRIRQRPPRLPRPRPRPPHSPRP	0.511
RRIRQRPPRLPRPRPRPPHWPRP	0.641
RRIRQRPPRLPRPRPRPPLCPRP	0.28
RRIRQRPPRLPRPRPRPPMEPRP	-0.22
RRIRQRPPRLPRPRPRPPNMPRP	-0.089
RRIRQRPPRLPRPRPRPPNNPRP	-0.259
RRIRQRPPRLPRPRPRPPNVPRP	-0.0755
RRIRQRPPRLPRPRPRPPNYPRP	0.195
RRIRQRPPRLPRPRPRPPPIPRP	0.467
RRIRQRPPRLPRPRPRPPPLPRP	0.977
RRIRQRPPRLPRPRPRPPQFPRP	0.076
RRIRQRPPRLPRPRPRPPQLPRP	0.424
RRIRQRPPRLPRPRPRPPRKPRP	0.835
RRIRQRPPRLPRPRPRPPRPPRP	0.752
RRIRQRPPRLPRPRPRPPSQPRP	0.0863
RRIRQRPPRLPRPRPRPPTCPRP	0.224
RRIRQRPPRLPRPRPRPPTRPRP	0.398
RRIRQRPPRLPRPRPRPPVGPRP	0.119
RRIRQRPPRLPRPRPRPPVLPRP	0.155
RRIRQRPPRLPRPRPRPPVMPRP	-0.285

Sequence	shrunken log2 fold change
RRIRQRPPRLPRPRPRPPWFPRP	-0.018
RRIRQRPPRLPRPRPRPPWRPRP	0.619
RRIRQRPPRLPRPRPRPPYLPRP	-0.289
RRIRQRPPRLPRPRPRPQEFPRP	-0.0104
RRIRQRPPRLPRPRPRPQGEPRP	-0.154
RRIRQRPPRLPRPRPRPQHDPRP	-0.477
RRIRQRPPRLPRPRPRPQHHPRP	-0.527
RRIRQRPPRLPRPRPRPQHTPRP	-0.69
RRIRQRPPRLPRPRPRPQKHPRP	-0.324
RRIRQRPPRLPRPRPRPQLAPRP	0.0428
RRIRQRPPRLPRPRPRPQLGPRP	-0.194
RRIRQRPPRLPRPRPRPQMYPRP	-0.0131
RRIRQRPPRLPRPRPRPQPAPRP	0.218
RRIRQRPPRLPRPRPRPQPGPRP	0.0446
RRIRQRPPRLPRPRPRPQPVPRP	0.00167
RRIRQRPPRLPRPRPRPQRDPRP	0.0969
RRIRQRPPRLPRPRPRPQRKPRP	-0.058
RRIRQRPPRLPRPRPRPQRRPRP	0.0498
RRIRQRPPRLPRPRPRPQTPPRP	0.0705
RRIRQRPPRLPRPRPRPQTRPRP	-0.0472
RRIRQRPPRLPRPRPRPQVQPRP	-0.00173
RRIRQRPPRLPRPRPRPQWGPRP	-0.161
RRIRQRPPRLPRPRPRPQWHPRP	-0.0165
RRIRQRPPRLPRPRPRPQWQPRP	0.16
RRIRQRPPRLPRPRPRPQWYPRP	-0.0123
